± gives the standard deviation of the averaged measurements.

For the data set, the system named is VchCAST RNA-guided transposition machinery (E. coli BL21(DE3) host, lacZ target). Nature of the data set: relative integration efficiency (T-RL orientation) vs wild-type transposon end (log2 (normalized fold change)); transposon end mutated: right end (5 bp flank + 75 bp right end); higher = more efficient transposition. The procedure, abridged:
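Relative integration efficiency is a fold change of output over input barcode abundance, normalised to reference barcodes and log-transformed. Input plasmids and genomic integration junctions were PCR-amplified and Illumina-sequenced from E. coli BL21(DE3) co-transformed with a T7-driven effector plasmid and pUC57 donor pools of 1549 left-end or 1849 right-end transposon variants. Plating was done with 0.1 mM IPTG at 37°C for 18 h, with two biological output replicates and four reference barcodes.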
“ACATTTCTTCATACAACCATAAAATGATAATTACACCCATAAATGGATCATTATCACACCCAATTTAACTATAACGCTCTGATCATAGTCAGACCAACATTGCTACGACCCGTATTCGCACCGACAC”: the “relative integration efficiency (log2)” value is -4.65 ± 0.36.
As to “ACATTTGTTGATACAACCATATATTGATATCTCCAACCATAAGTTGATATTTTTCACACCCATAAATTGATATTGCCTCTGATCATAGTCAGACCAACATTGCTACGACCCGTATTCGCACCGACAC”, the “relative integration efficiency (log2)” value is -0.335 ± 0.081.
The same measure for “ACATTTGTTGATACAACCATAAAATGGTAATTCCACCCATAAATTGATAATTATCACACCCAATTTAACTATAACGCTCTGATCATAGTCAGACCAACATTGCTACGACCCGTATTCGCACCGACAC”: -1.45 ± 0.25.
With “ACATTTGTTGATACAACCATATATTGATATCTCCACCCATAAATTGATAATTATCACACCCATAAATTGATATTGCCTCTGATCATAGTCAGACCAACATTGCTACGACCCGTATTCGCACCGACAC”, the “relative integration efficiency (log2)” value is -0.348 ± 0.03.
As to “ACATTTGTTGATACAACCATAAAATGATAATTACACCCATAAATTGATAATTATCACACCACGCAATTGATATTGCCTCTGATCATAGTCAGACCAACATTGCTACGACCCGTATTCGCACCGACAC”, the “relative integration efficiency (log2)” value is -0.677 ± 0.11.
On to “ACATTTGTTGATACAACCATAAAATGATAATTACTCTGCACCCATAAATTGATAATTATCAGTGGGTATTTAACTATAACGATCATAGTCAGACCAACATTGCTACGACCCGTATTCGCACCGACAC”, for which the “relative integration efficiency (log2)” value was -2.05 ± 0.21.
Turning to “ACATTTGTTGATACAACCATAAAATGATAACACCCATAAATTGATAATTATCACACCCATAAATTGATATTGCCTCTGATCATAGTCAGACCAACATTGCTACGACCCGTATTCGCACCGACACTGA”, the “relative integration efficiency (log2)” value was -3.99 ± 0.2.
Take “ACATTTGTTGATACAACCATAAAATGAGCCGGCACAAACGCCCGGTCGCCGGCGACACAAACGCCCGGTCGCGGTAAGAGGATCATAGTCAGACCAACATTGCTACGACCCGTATTCGCACCGACAC”: the “relative integration efficiency (log2)” value is -3.42 ± 0.22.
In the case of “ACATTTGTCGATACAACCATAAAATGATAATTACACCCATAAATGGATAATTATCACACCCAATTTAACTATAACGCTCTGATCATAGTCAGACCAACATTGCTACGACCCGTATTCGCACCGACAC” it was -1.05 ± 0.18; in that of “ACATTGGTTCATACAACCATAAAATGATAATTACACCCATAAATGGATAATTATCACACCCAATTTAACTATAACGCTCTGATCATAGTCAGACCAACATTGCTACGACCCGTATTCGCACCGACAC”, -7.74 ± 0.3.
As to “ACATTTGTTGATAAAACCATAAAATGATTTTAAGAAACCATAATCTGAAATAATCACACCCATAAATTGATATTGCCTCTGATCATAGTCAGACCAACATTGCTACGACCCGTATTCGCACCGACAC”, the “relative integration efficiency (log2)” value was -3.13 ± 0.069.
In the case of “ACATTTGTTGATACAACCATAAAATGATAATTACACCCATAAATTGATATTGCTCACAACCATAAAATGATAATTACTCTGATCATAGTCAGACCAACATTGCTACGACCCGTATTCGCACCGACAC”, the “relative integration efficiency (log2)” value was -0.532 ± 0.27.
In the case of “ACATTTGTTGATACAACCATAAAAGGATAATTACCCCCATAAATTGATAATTATCACACCCCATTTAACTATAACGCTCTGATCATAGTCAGACCAACATTGCTACGACCCGTATTCGCACCGACAC” it was -1.46 ± 0.44; in that of “ACATTTGTTGATACCACCATAAAATGGTAATTACACCCCTAAATTGATAATTATCACACCCAATTTAACTATAACGCTCTGATCATAGTCAGACCAACATTGCTACGACCCGTATTCGCACCGACAC”, -3.42 ± 0.33; in that of “ACATTTGTTGATACAACCATAAAATGATTATTACACCCATAAATTGATAATTGTGACACCGAATTTAACTATAACGCTCTGATCATAGTCAGACCAACATTGCTACGACCCGTATTCGCACCGACAC”, -1.18 ± 0.23.
As to “ACATTTGTTGATACAACCATAAAATGATAATTACACCCATAAATTGATAATTATCACACCCATAAATTGATATTGCCTCTGATCATCAACCATAAAATGATAATTAAGTCAGACCAAGCACCGACAC”, the “relative integration efficiency (log2)” value was 0.146 ± 0.35.
As for “ACATTTGTTGATACACCCATAAATTGATAATTACACCCATAAATTGATAATTATCACAACCATATATTGATATCTCCTCTGATCATAGTCAGACCAACATTGCTACGACCCGTATTCGCACCGACAC”, the “relative integration efficiency (log2)” value is -0.596 ± 0.21.
“ACATTTGTTGATACAACCATAAAATGATAATTACACCCATAAATTGATAATTATCACACCCATAAATTGATATTGCCTCTGATCATAGTCAGACCAACAACCATAAAATGATAATTAGCACCGACAC”: the “relative integration efficiency (log2)” value was found to be 0.0312 ± 0.094.
Regarding “ACATTTGTTGATACAACCATATATTGATATCTCCAACCATAAAATGATAATTATCACAACCATAAGTTGATATTTTCTCTGATCATAGTCAGACCAACATTGCTACGACCCGTATTCGCACCGACAC”, the “relative integration efficiency (log2)” value was -0.491 ± 0.098.
As to “ACATTAGTTGATACAACCATAAAATGATAATTACACCCATAAATTCATCATTATCACACCCAATTTAACTATAACGCTCTGATCATAGTCAGACCAACATTGCTACGACCCGTATTCGCACCGACAC”, the “relative integration efficiency (log2)” value is -7.83 ± 0.12.
In the case of “ACATTTGTTGATACAACCATAAAATGATAATGCACAAACGCCCGGTCGCCGGCGACACAAACGCCCGGTCGCGGTAAGAGGATCATAGTCAGACCAACATTGCTACGACCCGTATTCGCACCGACAC” it was -2.15 ± 0.043; in that of “ACATTTGTTGATACAACCATAAAATGATAATTACACCCATAAATTGATAATTATGTCACCCATAAATTGATATTGCCTCTGATCATAGTCAGACCAACATTGCTACGACCCGTATTCGCACCGACAC”, -0.72 ± 0.15.
“ACATTTGTTGATACAACCATAAAATGATAATTACACCCATAAATTGATTTAAATCACACCCATAAATTGATATTGCCTCTGATCATAGTCAGACCAACATTGCTACGACCCGTATTCGCACCGACAC”: the “relative integration efficiency (log2)” value is -0.801 ± 0.11.
Turning to “ACATTTGTTGATACAACCATAAGTTGATATTTTCAACCATAAAATGATAATTATCAGTGGGTATTTAACTATAACGCTCTGATCATAGTCAGACCAACATTGCTACGACCCGTATTCGCACCGACAC”, the “relative integration efficiency (log2)” value is -0.962 ± 0.12.
The same measure for “ACATTTGTTGATACAACCATTAAATGATAATTACACCCATAAATTGATAATAATGACACCGAATTTAACTATAACGCTCTGATCATAGTCAGACCAACATTGCTACGACCCGTATTCGCACCGACAC”: -0.985 ± 0.22.

These data come from the supplement of paper PMC10201428.
